# Assay results as given in article doi:10.1101/2021.09.21.461216 (bioRxiv, 2021).
# B1: BRI3BP domain identified in the two-hybrid assay, overexpressed in mammalian cells (domain or fragment, UniProt Q8BXV2 85-253, looked up)
# chain: RFVQGVDMFLETLWKVWMELLEVLGLDVSNLSQYFSPASVSNSPTRALVLVGVVLLAYWFLSLTLGFTFSLLHLVFGRFFWLVRVILFSMSCVYILHKYEGEPEHAVLPLCVVVAIYFMTGPMGYWRGSPGGLCSPSVEEKLEHLENQVRLLNIRLNRVLENLDRSKDK
# Target: GST tagged constitutively activated K-Ras4B (GST-K-RasV12) (UniProt P01116-2 1-188, V12)
# Experiment: pull-down
binder,measurement,value
B1,fold selectivity for K-Ras over H-Ras,~7 fold
